Test results reported in patent US9724388B2, “FGF-18 compound dosing regimen” (MERCK PATENT GMBH, priority 2014, dated 2017).
“Also recorded” adds a separate entry of the source.

Legend:
[1] = tested on: rat model of OA (ACLT with tMx); experiment: ACLT+tMx rat OA model, intracycle dosing frequencies of sprifermin; format: in vivo
Protocol: The goal of this study was to evaluate the effect of different intracycle dosing frequencies of the same total dosage (3×1 μg) of sprifermin on cartilage volume in a rat model of OA. The anterior cruciate ligament transection (ACLT) with resection of the medial meniscus (tMx) was performed as disclosed in example 1. Joints from male Lister Hooded Rats (200-260 g, Charles River) were used in this study. Animals were euthanized 18 weeks post-surgery.
The changes in the joint are related to clinical assessments in OA (cartilage loss, osteophytes, subchondral sclerosis). One μg sprifermin in saline was injected three times either weekly, every 2nd, every 3rd, every 4th or every 5th week and compared to appropriate vehicle groups. Body weight, joint diameters and clinical health scores were investigated weekly.

[2] = tested on: Primary articular porcine chondrocytes; experiment: Porcine chondrocyte proliferation with or without IL1α challenge; format: cell-based, pig; conditions: 100 ng/mL, 8 days
Protocol: Porcine chondrocytes were isolated from the cartilage of a femoral head of a pig hip (pigs were approximately one year old). After dissection of the joints, the cartilage was harvested and digested 45 minutes with collagenase 0.25% (1/10 dilution of collagenase NBG4 2.5% in HAM's F12) at room temperature. The loosened cells were discarded and the cartilage further digested overnight with collagenase 0.1% (1/25 dilution of collagenase NBG4 2.5% in HAM's F12) at 37° C. to extract the chondrocytes. For this study, the chondrocytes were cultured in monolayer.
Primary articular porcine chondrocytes were stimulated or not with 10 ng/mL IL1α and were either treated immediately or 6 hours later with anakinra 100 ng/mL and/or trFGF-18 100 ng/mL. Each condition was performed in 4 or 6-plicates. As a control, cells were also cultured with anakinra alone, trFGF-18 alone or in the absence of any treatment (medium).
Pre-culture: After cell isolation porcine chondrocytes were inoculated at 20,000 cells/cm^2 and cultivated for one week in complete HAM's F12. Cells were then harvested with accutase, counted and used as described below.
For cells treated directly with anakinra: Chondrocytes were inoculated in a 24-well plate at 15,000 cells/well in 0.5 mL of complete HAM's F12. Then 0.25 mL of trFGF-18 400 ng/mL and/or 0.25 mL of anakinra 400 ng/mL were added to the cells. In the challenged samples, 10 μL of IL1α at 1,000 ng/mL were also added to the cells. trFGF-18, anakinra and IL1α were all diluted in complete HAM's F12. The final volume in the culture well was adjusted at 1 mL with complete HAM's F12. Final concentrations were 10 ng/mL IL1α, 100 ng/mL trFGF-18 and 100 ng/mL anakinra and the total culture time was eight days. A complete medium change was performed after four days. N=4.
For cells treated with anakinra and trFGF-18 6 hours after the IL1α challenge: Chondrocytes were inoculated in a 24-well plate at 15,000 cells/well in 1 mL of complete HAM's F12 containing or not containing IL1α 10 ng/mL. After 6 hours the medium was removed and replaced with 0.25 mL trFGF-18 400 ng/mL and/or 0.25 mL of anakinra 400 ng/mL. In the challenged samples, 0.25 mL of IL1α at 40 ng/mL was also added to the cells. trFGF-18, anakinra and IL1α were all diluted in complete HAM's F12. The final volume in the culture well was adjusted at 1 mL with complete HAM's F12. Final concentrations were 10 ng/mL IL1α, 100 ng/mL trFGF-18 and 100 ng/mL anakinra and the total culture time was eight days. A complete medium change was performed after four days. N=6.
After eight days of culture, cells were harvested with accutase and resulting cell suspensions were analyzed for cell concentration and cell viability with a ViCell™ cell analyzer (from Beckman Coulter). Statistical analysis consisted in a 1-way ANOVA followed by a Dunnett post-hoc analysis.

B1: trFGF-18: recombinant truncated form of human FGF-18 (170 amino acids, SEQ ID NO: 2), produced in E. coli (protein)
chain: MEENVDFRIHVENQTRARDDVSRKQLRLYQLYSRTSGKHIQVLGRRISARGEDGDKYAQLLVETDTFGSQVRIKGKETEFYLCMNRKGKLVGKPDGTSKECVFIEKVLENNYTALMSAKYSGWYVGFTKKGRPRKGPKTRENQQDVHFMKRYPKGQPELQKPFKYTTVTK
modifications: Recombinant truncated FGF-18(trFGF-18)
cartilage volume on medial tibia (FIG. 9) ([1]; 1 μg/joint once every 3rd week, three injections, listed as rhFGF-18): pharmacologically meaningful and statistically significant difference over saline; also recorded: most beneficial structural outcome
body weight gain ([1]; 3 x 1 μg intra-articular injections): no influence
cartilage denudation (stereology) ([1]; 3 x 1 μg/joint): prevented more or less complete cartilage denudation
cartilage volume ([1]; all groups treated with rhFGF-18): higher cartilage volume values compared to placebo
AUC of joint diameters ([1]; injected every fifth week): the same as with saline injections
joint diameters, differences between regimens ([1]; injections every 2nd, 3rd or 4th week): No significant differences
joint diameters (AUC, FIG. 8) ([1]; injections in week 3, 4 and 5 vs injections in week 3, 8 and 13): significantly higher
stimulation of proliferation vs control (medium, IL1α 10 ng/mL) ([2]; first experiment (direct treatment)): 2.38 fold
stimulation of proliferation vs control (medium, IL1α 10 ng/mL) ([2]; second experiment (6-hour delay)): 2.44 fold
increase in cell numbers vs control (medium, no IL1α) ([2]; first experiment (direct treatment, FIG. 6A)): 11.25 fold
increase in cell numbers vs control (medium, no IL1α) ([2]; second experiment (6-hour delay, FIG. 6B)): 7.75 fold
